Assay: soluble on expression in E. coli; label from the status in PepcDB or PDB records

| Sequence | soluble on expression in E. coli |
| --- | --- |
| MAHHHHHHMSGPPKQCYYELLQVDRKASSEEIRQAYKKQALIHHPDKNYSNEQSTIEKFKDIQNAYAVLSDPDERAWYDAHRESILNGEDADSSQHEVNLYCYFTSRCFDGFDDNEGGFYSVYRKVFDQLIEDESEYSSNAKTWPRFGDSATSWSSVSKFYSHWRNFSSCKTFAWKDEYKVNEIPDRASRRMAERINQKLRTSAKKEYVQIVQGLTRFVHRRDPRVAAELTRQEEERRLKEEEREKRELEWAKNRREANEKLWAEAAEKEAEEERARIERGEAPDSCTLDLLYEKQRQCEEARKVKGGTNCGFAMLEDEHEDNLPEKKRSCPACKKQFKTDAQYKEHVNSSKHKAKLRQLSAKGVDIETLMNEEKDISTCV | soluble |
| MAHHHHHHMSKAVQQIFEDYNRSRAQFTQSIYDMCLKAHHMEVIISTDIIMLLRPLILDKVPIVQQNATQILGKMASHSEEVALTILQNDVLPHLVYCLKHENKNYRKNCANTLRCLASHNAKLANLVAEEENCIDNLVDSLDEYDVRLKEACLNALCAIGKHDVDLSKQLMAKGIIPLVILSLQEKDTNLVRSSLNILTELSKHTNEIAKEVVDNNALPHLIKFLDHTDVQVKRYACNCLAQIAKHKEELTELIIESDVFPRVIYLLNDSDDVVKKNCANCLKEMSKHNEDICKIIARAGSLPFLCECIEQSSKGAVKLPAILCIGFIASFSESLSLNIILSNAIPILKKCLIGEEEDYIKASCVWAVGNIGKHSSSHAKKLSDENLLIILVNLYNANDSSDDLKKKVKLSFKGVIQKVTDLESLEPVFLKATAKLAKYCICQFAKIIPKSPAHKKAFIKSGCLKRLQVGRQSSCAIFPRCRVTVLPPYRPSAHPCTPSPLHRK | not soluble |
| MAHHHHHHMSLLRMCYRSIDITVKSRHARTFLKKRLMEQWAAKCKEPNPEKQRFYMDLAGSFLQALHTERNPKPGKVVNFQLSRQVAYEQKLADREKSAGARRVRRMSKEVKTQDH | not soluble |
| MAHHHHHHMSQKNKKVYDTQNEQENTNSSSNSSSNSDKEIQKDKEEYKKGENNFSILNVEEVNIIELSREELYKVCAELQQKELEALKYIYVLDSELNIKYENDEDKLTIVEINLNDQNISNNHINFTFELPKDYPLGSISIINVTVKNFTPDTNNYINEEVYRYLQRYNEQRECILPVIYKVNEIIENIIQYKEEPGEKSLSSSTEGRSDFDQEQTFNEWDNKNKQRKADIVCFPELSYSMNFSKRPNILARRLCYSHHILSLVKRSCIIKWAKQLKIGGYSKIGYPGIIVCEGPKDEVDFYINSLNKLRWKHFDCRGMEDIELDENENLDDARVLPTTVRELDAKSMRTLSDICTQCGLRDLFLTSMKIYNNNDKKGSVKEKNKNGEENKPGNTKDILKEKGKKKKKRSSK | not soluble |
| MAHHHHHHMSTMDVPGTAIEQYFNQLIQMRLLTQVIVSDTRGDTTVACLMGLEHGGDAVVSSSEDTYGVAESIMESNVALSGARCFQNLDQLNLGVPLYVSFQYHDDVVVQTLDGCCMLTLIGSRSQGHFVGGLLTLLDQIRSCEAYQELLTQTQLCFR | not soluble |
| MAHHHHHHMSTVEDFVLQALASTDAVESDKLAETLRVNHQDVVGAIKSLEADGYVVSEIKPKPTWKLTSEAENICESGSPEFLLWELLAGGAMTQEDIAEKFGKDVAAVAVANGMKAKIFALNKSEGKIIVTRSPSVSSFHDGIRVSLMRALKGEHVDPKEAETLKKRKLATLDNMKVFFVTKGPNYATQRRAKAVGDLTKEMLQDGSWKTAHFKEYNLGAAGREVGCGQLHPLLKVRQEFREIFMELGFREMETDRWVESSFWNFDALFIAQNHPARDVQDTFFVSKPSTHKLDHREVVDRVREMHEKNFNYTWKEEEARRNVLRTHTTCCSGYWLHHIAKSSPLLPNGRRDFCPGRYYSIDRVFRNEEMDRTHLCEFHQVEGCVIDRNISLSNMMHTFQLFFSRIGVEKLRFKPVFNPYTEPSMEIFGWHKQLKRWIEVGNSGLFRPEMLVPLGFDEDVTVMAWGLSLERPTMIKYGLSSIHELFGHKVDLRFIKQSKLMRF | soluble |
| MAHHHHHHMSVPKAALMQIFDLYDTDRAGWIPTKRIPYVLRTCGMISTQTEMETLLHDHFASRDTVTRSGFQKFLEQKDILKAEDFSSEKELATAFQVFDSRESGALTSDEVLTILTRMNEKIDVDAYHRVMDGLELNEQGMVEFAKLAAHMLRSANEYKLTVRQVLEELAE | soluble |

Source: the DeepSol protein solubility set
